± gives the standard deviation of the averaged measurements.
Assay: total protein half-life in vivo (active degradation + dilution); higher = more stable protein
[1] = E. coli NCM3722 delta-clpP, growth: N-lim chemostat, doubling time 6 h
[2] = E. coli NCM3722 delta-hslV, growth: N-lim chemostat, doubling time 6 h
[3] = wild type E. coli NCM3722, growth: C-lim chemostat, doubling time 3 h
[4] = wild type E. coli NCM3722, growth: C-lim chemostat, doubling time 6 h
[5] = wild type E. coli NCM3722, growth: P-lim chemostat, doubling time 6 h
[6] = wild type E. coli NCM3722, growth: P-lim chemostat, doubling time 12 h
[7] = E. coli NCM3722 delta-clpP delta-lon delta-hslV, growth: N-lim chemostat, doubling time 6 h
[8] = E. coli NCM3722 delta-smpB, growth: N-lim chemostat, doubling time 6 h
[9] = wild type E. coli NCM3722, growth: C-lim chemostat, doubling time 12 h
[10] = wild type E. coli NCM3722, growth: N-lim chemostat, doubling time 6 h
[11] = wild type E. coli NCM3722, growth: N-lim chemostat, doubling time 12 h
[12] = E. coli NCM3722 delta-lon, growth: N-lim chemostat, doubling time 6 h

Sequence	total protein half-life in vivo [1] [h]	total protein half-life in vivo [2] [h]	total protein half-life in vivo [3] [h]	total protein half-life in vivo [4] [h]	total protein half-life in vivo [5] [h]	total protein half-life in vivo [6] [h]	total protein half-life in vivo [7] [h]	total protein half-life in vivo [8] [h]	total protein half-life in vivo [9] [h]	total protein half-life in vivo [10] [h]	total protein half-life in vivo [11] [h]	total protein half-life in vivo [12] [h]
MIKLSEKGVFLASNNEIIAEEHFTGEIKKEEAKKGTIAWSILSSHNTSGNMDKLKIKFDSLASHDITFVGIVQTAKASGMERFPLPYVLTNCHNSLCAVGGTINGDDHVFGLSAAQRYGGIFVPPHIAVIHQYMREMMAGGGKMILGSDSHTRYGALGTMAVGEGGGELVKQLLNDTWDIDYPGVVAVHLTGKPAPYVGPQDVALAIIGAVFKNGYVKNKVMEFVGPGVSALSTDFRNSVDVMTTETTCLSSVWQTDEEVHNWLALHGRGQDYCQLNPQPMAYYDGCISVDLSAIKPMIALPFHPSNVYEIDTLNQNLTDILREIEIESERVAHGKAKLSLLDKVENGRLKVQQGIIAGCSGGNYENVIAAANALRGQSCGNDTFSLAVYPSSQPVFMDLAKKGVVADLIGAGAIIRTAFCGPCFGAGDTPINNGLSIRHTTRNFPNREGSKPANGQMSAVALMDARSIAATAANGGYLTSASELDCWDNVPEYAFDVTPYKNRVYQGFVKGATQQPLIYGPNIKDWPELGALTDNIVLKVCSKILDEVTTTDELIPSGETSSYRSNPIGLAEFTLSRRDPGYVSRSKATAELENQRLAGNVSELTEVFARIKQIAGQEHIDPLQTEIGSMVYAVKPGDGSAREQAASCQRVIGGLANIAEEYATKRYRSNVINWGMLPLQMAEVPTFEVGDYIYIPGIKAALDNPGTTFKGYVIHEDAPVTEITLYMESLTAEEREIIKAGSLINFNKNRQM	5.63	6.45	1.12	1.87 ± 0.76	2.37	1.31 ± 0.42						
MSPTIYDIARVAGVSKSTVSRVLNKQTNISPEAREKVLRAIEELQYQPNKLARALTSSGFDAIMVISTRSTKTTAGNPFFSEVLHAITAKAEEEGFDVILQTSHNPAEDLQKCESKIKQKMIKGIIMLSSPADESFFAQLDKYDIPVVVIGKVEGQYAHVYSVDTDNFGDSIALTDALIESGHQNIACLHAPLDVHVSVDRVNGYKQSLAAHNIAVRDEWIVDGGYTHETALKAARQLLSQSPLPEAVFATDSLKLMSIYRAAAEKNIAIPQQLAVVGYSNETLSFILTPAPGGIDVPTQELGQQSCELLFRLISGKPSPQNITVATHMTLK	4.18 ± 1.6	5.76 ± 0.6	2.48 ± 0.17	5.41 ± 0.97	5.06 ± 0.33	10.6 ± 2.2	5.84 ± 0.79	4.86 ± 0.18	10.2 ± 2.9	5.34 ± 0.57	9.3 ± 0.42	
MPANARSHAVLTTESKVTIRGQTTIPAPVREALKLKPGQDSIHYEILPGGQVFMCRLGDEQEDHTMNAFLRFLDADIQNNPQKTRPFNIQQGKKLVAGMDVNIDDEIGDDE	2.83 ± 0.037	3.29 ± 0.22	> 4	3.52 ± 0.75	2.77 ± 0.39	5.24 ± 0.056	5.19 ± 0.069	2.88 ± 0.047	5.13 ± 1.2	3.11 ± 0.63	5.02 ± 0.3	2.97 ± 0.61
MLGWVITCHDDRAQEILDALEKKHGALLQCRAVNFWRGLSSNMLSRMMCDALHEADSGEGVIFLTDIAGAPPYRVASLLSHKHSRCEVISGVTLPLIEQMMACRETMTSSEFRERIVELGAPEVSSLWHQQQKNPPFVLKHNLYEY				0.895			4.15		0.859			
MQQIARSVALAFNNLPRPHRVMLGSLTVLTLAVAVWRPYVYHRDATPIVKTIELEQNEIRSLLPEASEPIDQAAQEDEAIPQDELDDKIAGEAGVHEYVVSTGDTLSSILNQYGIDMGDITQLAAADKELRNLKIGQQLSWTLTADGELQRLTWEVSRRETRTYDRTAANGFKMTSEMQQGEWVNNLLKGTVGGSFVASARNAGLTSAEVSAVIKAMQWQMDFRKLKKGDEFAVLMSREMLDGKREQSQLLGVRLRSEGKDYYAIRAEDGKFYDRNGTGLAKGFLRFPTAKQFRISSNFNPRRTNPVTGRVAPHRGVDFAMPQGTPVLSVGDGEVVVAKRSGAAGYYVAIRHGRSYTTRYMHLRKILVKPGQKVKRGDRIALSGNTGRSTGPHLHYEVWINQQAVNPLTAKLPRTEGLTGSDRREFLAQAKEIVPQLRFD [P0AFS9]		6.32	0.826 ± 0.34	3.3 ± 0.13			3.29		6.19	5.39		
MESYSQNSNKLDFQHEARILNGIWLITALGLVATAGLAWGAKYIEITATKYDSPPMYVAIGLLLLCMYGLSKDINKINAAIAGVIYLFLLSLVAIVVASLVPVYAIIIVFSTAGAMFLISMLAGLLFNVDPGSHRFIIMMTLTGLALVIIVNAALMSERPIWIISCLMIVLWSGIISHGRNKLLELAGKCHSEELWSPVRCAFTGALTLYYYFIGFFGILAAIAITLVWQRHTRFFH										> 8		
MIKIGVIADDFTGATDIASFLVENGLPTVQINGVPTGKMPEAIDALVISLKTRSCPVVEATQQSLAALSWLQQQGCKQIYFKYCSTFDSTAKGNIGPVTDALMDALDTPFTVFSPALPVNGRTVYQGYLFVMNQLLAESGMRHHPVNPMTDSYLPRLVEAQSTGRCGVVSAHVFEQGVDAVRQELARLQQEGYRYAVLDALTEHHLEIQGEALRDAPLVTGGSGLAIGLARQWAQENGNQARKAGRPLAGRGVVLSGSCSQMTNRQVAHYRQIAPAREVDVARCLSIETLAAYAHELAEWVLGQESVLAPLVFATASTDALAAIQQQYGAQKASQAVETLFSQLAARLAAEGVTRFIVAGGETSGVVTQSLGIKGFHIGPTISPACRG						11.4	5.65 ± 0.84					
MKAFWRNAALLAVSLLPFSSANALALQAKQYGDFDRYVLALSWQTGFCQSQHDRNRNERDECRLQTETTNKADFLTVHGLWPGLPKSVAARGVDERRWMRFGCATRPIPNLPEARASRMCSSPETGLSLETAAKLSEVMPGAGGRSCLERYEYAKHGACFGFDPDAYFGTMVRLNQEIKESEAGKFLADNYGKTVSRRDFDAAFAKSWGKENVKAVKLTCQGNPAYLTEIQISIKADAINAPLSANSFLPQPHPGNCGKTFVIDKAGY		6.73 ± 0.69	2.91 ± 0.23	6.59 ± 1.8	5.74 ± 0.09		5.86 ± 0.29	5.96 ± 0.5		5.72 ± 0.6	12.8 ± 0.28	6.91 ± 0.17
MAIPAFGLGTFRLKDDVVISSVITALELGYRAIDTAQIYDNEAAVGQAIAESGVPRHELYITTKIWIENLSKDKLIPSLKESLQKLRTDYVDLTLIHWPSPNDEVSVEEFMQALLEAKKQGLTREIGISNFTIPLMEKAIAAVGAENIATNQIELSPYLQNRKVVAWAKQHGIHITSYMTLAYGKALKDEVIARIAAKHNATPAQVILAWAMGEGYSVIPSSTKRKNLESNLKAQNLQLDAEDKKAIAALDCNDRLVSPEGLAPEWD	4.57 ± 0.071	4.59 ± 0.27	3.05 ± 0.099	5.39 ± 0.67	5.21 ± 0.41	11.4 ± 0.5	4.33 ± 0.17	4.78 ± 0.36	10.7 ± 6.2	4.615 ± 0.044	8.62 ± 3.3	4.76 ± 0.34
